What all share (details): both partners purified
One assay addresses T1, PDGFRα-Fc I139E (UniProt P16234-1 24-528, I139E).
T1 construct: PDGFRα (CD140a), extracellular domain, aa 24 to 528, NCBI XP_005265800; Point mutant of m1; source: HEK 293 F suspension cells, transiently transfected (PEI), purified from the medium with Protein A beads
Description: MST; Monolith NT.115 Pico; read-out: dose-dependent photo-bleaching (fluorescence quenching) rate in a prolonged initial fluorescence segment (5 s) before the thermophoresis segment; 0.1 nmol/l NT-647-labelled PDGF-BB constant, PDGFRα-Fc variants in 16 concentrations over 5 log steps; 60% excitation power; one site binding model; IgG elution buffer neutralised with 0.1 M Tris pH 8.0, 0.025% Tween-20, 50 mM NaCl; 25°C.

The next assay concerns the target T2, PDGFRα-Fc Y206S (UniProt P16234-1 24-528, Y206S).
T2 construct: PDGFRα (CD140a), extracellular domain, aa 24 to 528, NCBI XP_005265800; Point mutant of m1; source: HEK 293 F suspension cells, transiently transfected (PEI), purified from the medium with Protein A beads
The description is as above.

Another assay has as its target T3, PDGFRα-Fc wild type (UniProt P16234-1 24-528).
T3 construct: PDGFRα (CD140a), extracellular domain, aa 24 to 528, NCBI XP_005265800; Vector pFuse-PDGFRα-ECD-hIgG1-Fc2; also called soluble PDGFRα-Fc; WT; source: HEK 293 F suspension cells, transiently transfected (PEI), purified from the medium with Protein A beads
Described as above.

Another assay addresses T4, PDGFRα-Fc I139E + Y206S (UniProt P16234-1 24-528, I139E | Y206S).
T4 construct: PDGFRα (CD140a), extracellular domain, aa 24 to 528, NCBI XP_005265800; Double mutant of m1; also called I139E + Y206S double mutant; PDGFRα-Fc double mutant; source: HEK 293 F suspension cells, transiently transfected (PEI), purified from the medium with Protein A beads
Description: MST; Monolith NT.115 Pico; read-out: dose-dependent changes of MST traces (F1 over F0; MST-on time 4-5 s in Fig 7, 1.5-2.5 s in Fig 10A); 0.1 nmol/l NT-647-labelled PDGF-BB constant, PDGFRα-Fc titrated; 60% excitation power; 0.025% Tween-20, 50 mM NaCl; 25°C.

In the next assay the target is T5, PDGFRα-Fc I139A + Y206A (UniProt P16234-1 24-528, I139A | Y206A).
T5 construct: PDGFRα (CD140a), extracellular domain, aa 24 to 528, NCBI XP_005265800; Double mutant of m1; also called double alanine-exchange mutant; source: HEK 293 F suspension cells, transiently transfected (PEI), purified from the medium with Protein A beads
Description: MST; Monolith NT.115 Pico; read-out: dose-dependent photo-bleaching (fluorescence quenching) rate in a prolonged initial fluorescence segment (5 s) before the thermophoresis segment; 0.1 nmol/l NT-647-labelled PDGF-BB constant, PDGFRα-Fc variants in 16 concentrations over 5 log steps; 60% excitation power; one site binding model; IgG elution buffer neutralised with 0.1 M Tris pH 8.0, 0.025% Tween-20, 50 mM NaCl; 25°C.

A further assay concerns the target T6, PDGFRα-Fc V242K (UniProt P16234-1 24-528, V242K).
T6 construct: PDGFRα (CD140a), extracellular domain, aa 24 to 528, NCBI XP_005265800; Point mutant of m1; also called V242K single mutant; source: HEK 293 F suspension cells, transiently transfected (PEI), purified from the medium with Protein A beads
Description: MST; Monolith NT.115 Pico; read-out: dose-dependent changes of MST traces (F1 over F0; MST-on time 4-5 s in Fig 7, 1.5-2.5 s in Fig 10A); 0.1 nmol/l NT-647-labelled PDGF-BB constant, PDGFRα-Fc titrated; 60% excitation power; 0.025% Tween-20, 50 mM NaCl; 25°C.

Kd data for one molecule are collected here from publication PMC8031885, “Targeted mutagenesis on PDGFRα-Fc identifies amino acid modifications that allow efficient inhibition of HCMV infection while abolishing PDGF sequestration” (PLoS Pathogens, 2021).

B1: PDGF-BB (ligand, UniProt P01127 82-190, looked up)
chain: SLGSLTIAEPAMIAECKTRTEVFEISRRLIDRTNANFLVWPPCVEVQRCSGCCNNRNVQCRPTQVQLRPVQVRKIEIVRKKPIFKKATVTLEDHLACKCETVAAARPVT
modifications: NT-647 dye on amines (amine reactive labelling kit RED-NHS) in the MST experiments; unlabelled in the signalling assays
notes: PDGF-B chain of dimeric PDGF-BB, bought recombinant protein; also called dimeric PDGF-BB; source: bought: R&D # 220-BB
B1: the Kd with PDGFRα-Fc I139E worked out at 4.02 nM; with PDGFRα-Fc Y206S, 7.32 nM; with PDGFRα-Fc wild type, 0.14 nM; in the assay with PDGFRα-Fc I139E + Y206S, 200 nM; in the assay with PDGFRα-Fc I139A + Y206A it was 4.6 nM; in the assay with PDGFRα-Fc V242K, 92 nM.
